Legend:
[1] = in vivo; cited from earlier work
[2] = system: blood glucose levels; assay: In vivo pharmacodynamics of PCN-777 nanosystems in rats; design: species or system SD rats; conditions: diabetic rats
Description: Animal models and diabetes induction were undertaken. Male Sprague Dawley rats (180-200 g) and BALB/c mice (18-20 g) were provided by Beijing Vital River Laboratory Animal Technology Co. Ltd. New Zealand rabbits (2-2.5 kg) were provided in all the animal studies were conducted following the Chinese Regulations for the Administration of Affairs Concerning Experimental Animals and performed in compliance with the guidelines of the Institutional Animal Care and Use Committee (IACUC) of Wuhan University. To establish an alloxan-induced diabetic rat model, healthy rats were intravenously injected with alloxan 50 mg/kg once and the blood glucose changes were monitored daily to confirm their diabetic status. After seven days, the blood glucose was stable at 20 mmol/L, proving the diabetes model was successfully established. The difference between the establishment of diabetes models of mice and rabbits was that the dosage of alloxan in mice and rabbits is 100 mg/kg. […] INS bioactivity in vivo was undertaken. In vivo studies were performed in alloxan-induced diabetic rats (n=five per group) and rabbits (n=three per group). […] At predetermined time intervals, blood samples were collected for glucose testing using a blood glucose meter. Serum insulin level was determined using a bovine INS ELISA kit. […]

[3] = system: blood glucose level; assay: In vivo pharmacodynamics, blood glucose after T@I@U, I@U and free INS; design: species or system alloxan-induced diabetic rats and mice
Description: In vivo INS bioactivity studies were performed in alloxan-induced diabetic animals (n=six per group). The rats and mice were induced to type I diabetes by alloxan injections. The animals were regarded as diabetic if their fasting blood glucose levels were higher than 11 mmol/L in one week after injection.

[4] = system: Caco-2 cell monolayers with high or low expression of PCFT; assay: Transepithelial transport, TEER and INS degradation, PCN-777 nanosystems; conditions: 48 h of incubation
Description: The transepithelial transport studies were conducted following previously reported procedures. In short, the Caco-2 cells were cultured in transwell inserts for 21 days till the TEER values reached above 300Ω×cm^2. Caco-2 cell monolayers with high or low expression of PCFT were co-incubated with Free INS and I@P and I@F-P on the apical side for 48 hours. An amount of 100 μL of the sample was taken out from the basolateral side at different time intervals and 100 μL of DMEM was always supplemented to maintain a consistent volume. After 48 hours of incubation, samples of the apical and basolateral layers were collected respectively, and the cell monolayer was lysed with RIPA lysate and collected. The INS contents in each sample were then tested utilizing the bovine insulin ELISA kit. The degradation rate of INS in different preparations were calculated according to the following equation:
where m(total) is the total mass of INS added, m(apical) is the mass of INS in the apical layer, m(basolateral) is the mass of INS in the basolateral layer, and m(inside) is the mass of INS in the cell monolayer.

[5] = system: trypsin; assay: Protection of INS from trypsin degradation by UiO-68-NH2 nanosystems; conditions: trypsin-containing HBSS buffer, 37 °C, 1 h
Description: To determine whether UiO-68-NH2 could protect INS from digestive enzymes, the NPs were incubated in simulated intestinal fluid containing trypsin (1 mg/mL) at 37° C. Aliquots (100 μL) at specific time intervals were taken out and added 200 μL of DMSO containing 0.1% trifluoroacetic acid to stop the enzymatic reaction. The concentration of INS was determined with the Elisa kit in all the following experiments.
Aliquots (100 μL) were removed at specified time intervals, 200 μL of DMSO containing 0.1% trifluoroacetic acid was added to stop the enzymatic reaction, and the concentration of insulin in the solution was determined using an Elisa kit.

[6] = In vivo fluorescence imaging and biodistribution of PCN-777 formulations; design: species or system mice; rats; conditions: 12 h after administration
Text: In vivo fluorescence imaging is undertaken. RITC-INS, RITC-INS@P, and R-I@F-P were orally administered to the overnight fasted diabetic mice or normal mice. The SI Imaging Amix imaging system was used to assess the distribution and metabolism of INS preparations in mice with different intestinal expressions of PCFT at different time points. Another group of diabetic mice or normal mice was sacrificed twelve hours after RITC-INS, RITC-INS@P, and R-I@F-P treatment, and the organs and intestines were collected and observed. The same procedure was done to diabetic rats. The intestine loops of the RITC-INS, RITC-INS@P, and R-I@F-P medicated rats were collected by the same procedure and frozen in Tissue-Tek OCT with liquid nitrogen. Intestinal sections were obtained using a cryostat and visualized by CLSM after staining with DAPI for 10 min.

[7] = system: Caco-2 cell monolayers; assay: Lysosomal degradation of INS in cell monolayers, UiO-68-NH2 nanosystems; assay type: cell-based, human; conditions: 2 h incubation
[8] = In vivo pharmacokinetics, serum INS (UiO-68-NH2 nanosystems)
Description: The rats and mice fasted overnight before experiments and then administered different samples by gavage. The […] effect was tested following the oral administration of I@U and T@I@U (20 IU/kg). As control groups, one group of rats were administered free INS (20 IU/kg) by oral gavage, and the other group was administered free INS (5 IU/kg) by s.c. injection. Blood samples were collected from the orbital venous plexus and analyzed using a blood glucose meter, expressed as the percentage of baseline serum glucose level (0 h) at different periods. The INS contents in blood samples were measured using the bovine INS ELISA kit. The 0 h INS content was subtracted from the INS measured at different time intervals and plotted.
Hypoglycemic effects (FIG. 7A, B) and insulin levels in the serum of SD rats (FIG. 7C) were tested after administration of equal amounts of insulin I @ U and T @ I @ U (20IU/kg) to diabetic mice (BALB/C mice) and rats (SD rats) by gavage. As a control group, one group of rats was administered insulin (20 IU/kg) by gavage, and the other group was administered insulin (5 IU/kg) by subcutaneous injection.

[9] = In vivo fluorescence imaging and biodistribution of RITC-INS formulations (UiO-68-NH2); design: species or system mice; rats
Description: RITC-INS, RITC-INS@U, T@RITC-INS@U were orally administered to the overnight fasted mice for in vivo fluorescence imaging. The fluorescence images of mice were captured at different time points using the SI Imaging Amix imaging system to evaluate the metabolic process of INS preparations. Another group of mice was sacrificed after 4 h of treatment. The images of organs and intestines were also obtained. Different formulations were orally administered to the overnight fasted rats for 4 h. Then the rats were sacrificed, and the intestine loops were excised and frozen in Tissue-Tek OCT with liquid nitrogen. Cross intestine sections were obtained using a freezing microtome blade and then stained the intestine sections with DAPI for 10 min and visualized by CLSM.

Substance	duration of action [1]	glucose response ([2]; oral administration)	time to restoration of high blood glucose levels ([2]; subcutaneous injection)	blood glucose response ([3]; oral gavage, 20 IU/kg)	time after which hypoglycemic effect wears off ([3]; subcutaneous 5 IU/kg)	blood glucose level, % of the initial level ([3]; subcutaneous 5 IU/kg, at 2 h)	degradation of ingested INS [4]	active INS remaining [5]	fluorescence in intestine epithelial tissue sections [6]	ingested INS degraded [7]	relative (oral) bioavailability ([8]; oral 20 IU/kg versus s.c. free INS 5 IU/kg)	time of maximum serum INS level ([8]; subcutaneous 5 IU/kg)	time of return of serum INS to minimum ([8]; subcutaneous 5 IU/kg)	INS fluorescence in major organs / liver ([9]; 4 h after oral administration)	INS fluorescence in sectioned intestine epithelial tissue ([9]; confocal imaging, 2 h after administration)
regular insulin: regular insulin (INS) as used by injection in diabetics	4 to 8 h														
insulin [free INS]		fail to generate a significant glucose response	≤ 4 h	fails to reduce the blood glucose level	4 h	about 28%	almost completely degrades	almost completely degraded	only weak fluorescence	about 50%	0.7%	≤ 1 h	4 h	does not show any fluorescence signal	barely any fluorescence
